{"source": "patent US20150176059", "key": {"[1]": {"tested_on": "Z05-D DNA polymerase (Thermus sp. Z05?)", "conditions": "SYBR Green melting, 50 mM Tris pH 8.0, 100 mM KCl, 2.5 mM MgCl2"}, "[2]": {"tested_on": "Z05 DNA polymerase (Thermus sp. Z05?)", "experiment": "inhibition", "conditions": "KRAS PCR, 60 C, 10x excess, no UNG, 20 nM Z05, 3 mM MgCl2"}}, "note": "Read-outs that look alike come from different tables or passages of the source.", "data": [{"sequence": "CGATCATCTCAGAACATTCTTAGCGTTTUGUUCUUGTGTATGATCG [U2]", "values": [{"measurement": "binding", "setting": "[1]; dU replacing dT at positions shown as u (medium dU content), aptamer Tm 59.5 C with 20 nM Z05-D vs 57.9 C without", "result": 1.6, "unit": "°C"}, {"measurement": "activity", "setting": "[2]; dU replacing dT at positions shown as u (medium dU content), no-target Ct 31.2 vs 25.7 without aptamer", "result": 31.2, "unit": "Ct"}]}, {"sequence": "CGAUCAUCTCAGAACATTCTTAGCGTTTTGTTCTTGTGTAUGAUCG [U1]", "values": [{"measurement": "binding", "setting": "[1]; dU replacing dT at positions shown as u (low dU content), aptamer Tm 58.4 C with 20 nM Z05-D vs 56.8 C without", "result": 1.6, "unit": "°C"}, {"measurement": "activity", "setting": "[2]; dU replacing dT at positions shown as u (low dU content), no-target Ct 31.7 vs 25.7 without aptamer", "result": 31.7, "unit": "Ct"}]}, {"sequence": "CGAUCAUCTCAGAACATTCTTAGCGTTTUGUUCUUGTGTAUGAUCG [U3]", "values": [{"measurement": "binding", "setting": "[1]; dU replacing dT at positions shown as u (high dU content), aptamer Tm 57.6 C with 20 nM Z05-D vs 55.6 C without", "result": 2, "unit": "°C"}, {"measurement": "activity", "setting": "[2]; dU replacing dT at positions shown as u (high dU content), no-target Ct 30.8 vs 25.7 without aptamer", "result": 30.8, "unit": "Ct"}]}, {"sequence": "CGATCATCTCAGAACATTCTTAGCGTTTTGTTCTTGTGTATGATCG [U0 (NTQ21-46A)]", "values": [{"measurement": "binding", "setting": "[1]; aptamer Tm 60.7 C with 20 nM Z05-D vs 59.0 C without", "result": 1.7, "unit": "°C"}, {"measurement": "activity", "setting": "[2]; no-target Ct 32.0 vs 25.7 without aptamer", "result": 32, "unit": "Ct"}]}]}
